# Laboratory results reported in patent US11110182B2, “Multifunctional RNA nanoparticles and methods for treating cancer and therapeutic resistant cancer” (University of Cincinnati, priority 2016, dated 2021).
# B1: pRNA-HER2apt-siMED1: 3-WJ pRNA nanoparticle bearing a HER2-targeting RNA aptamer and two different MED1 siRNAs; strands p1 SEQ ID NO: 3, p2 SEQ ID NO: 4 (nucleic acid)
# chain 1: GGACAGUGAAAGUGAGUCAAAGGAUCAAUCAUGGCCAAAGAUGUUACUUUGAGAGCCUU
# chain 2: GGCUCUCAAAGUAACAUCUAAGGCCAUGUGUAUGUGGGGGGAGGACGAUGCGGUCUGCUGUGCUUGAUAUGCCCCAGACGACUCGCCCCCCACAUACUUUGUUGAUCCAAUGACUCACUUUCACUGUCCUU
# modifications: 2'-F modification; third strand may lack entry; pRNA-HER2apt-siMED1, p1; pRNA-HER2apt-siMED1, p2
# System: MDA-MB-231 cells
# Test: pRNA nanoparticle cellular uptake assay (confocal, flow cytometry), MDA-MB-231
# Assay type: cell-based, human
# Settings: MDA-MB-231 (HER2-negative), AF647-conjugated, 10 μg/mL, confocal microscopy
# Excerpt: FIG. 8A) HER2 expression in BT474 and MDA-MB-231 cells determined by western blot analyses. FIG. 8B) The binding of AF-647-labeled pRNA-HER2apt-siMED1 and its mutant nanoparticles to MDA-MB-231 and BT474 cells examined by confocal microscopy. Green represents the immunofluorescent staining of HER2, and blue represents nuclear staining with DAPI. FIG. 8C) The internalization of AF647-labeled pRNA nanoparticles by MDA-MB-231 cells examined by confocal microscopy. Green represents the immunofluorescent staining of β-actin. Scale bar: 10 μm. FIG. 8D) The cellular uptake of AF647-labeled pRNA nanoparticles by MDA-MB-231 cells quantified by flow cytometry. FIG. 8E) HER2 expression in BT474 xenograft tumors was examined by western blot analyses. FIG. 8F) MDA-MB-231 cells were incubated directly with (as indicated by-) or transfected with pRNAs using lipofectamine 2000. At 48 h post treatment, MED1 protein levels were determined by western blots.
# Cell culture. […] The hydrodynamic diameter and Tm value of pRNA nanoparticles were determined using dynamic light scattering and TGGE assay, respectively, as previously described.^54 The AFM imaging of the pRNA nanoparticles was performed at the University of Nebraska Medical Center imaging facility as previously reported.^55 Briefly, the pRNA nanoparticles (5 μL) were deposited on APS modified mica ^56 for a total of 2 min of incubation time. […]
molecule,measurement,value
B1,binding and internalization into cells,not
